From patent publication US20220402985A1
Where a chain is given by its changes, count along the chain named. Numbers in names are those of the source. Where “and” joins values, the source holds several entries; their conditions need not be identical. Equal entries are not always repeated.

B1: huNRG1(S177-Q237)(NRGE1A)::GG::huFcSEFL2 (Pb) (Fc fusion)
chain: SHLVKCAENDKSFCVNGGECFMIEGPSNPSRYLCKCPNEFTGDRCQEDFMASFYKAEELYQGGDKTHTCPPCPAPELLGGPSVFLFPPKPKDTLMISRTPEVTCVVVDVSHEDPEVKFNWYVDGVEVHNAKTKPCEEQYGSTYRCVSVLTVLHQDWLNGKEYKCKVSNKALPAPIEKTISKAKGQPREPQVYTLPPSREEMTKNQVSLTCLVKGFYPSDIAVEWESNGQPENNYKTTPPVLDSDGSFFLYSKLTVDKSRWQQGNVFSCSVMHEALHNHYTQKSLSLSPGK
B2: huNRG1(S177-Q237)(NRGE1B)::GG::huFcSEFL2 (Pb) (Fc fusion)
chain: B1 chain with A7G, F21Y, I23V, P26S, N28I
B3: huNRG1(S177-Q237)(NRGE1C)::GG::huFcSEFL2 (Pb) (Fc fusion)
chain: B1 chain with A7G, N9K, D10H
B4: huNRG1(S177-Q237)(NRGE1D)::GG::huFcSEFL2 (Pb) (Fc fusion)
chain: B1 chain with A7G, N9S, D10H, F21Y, I23V, P26S, N28I
B5: huNRG1(S177-Q237)(NRGE1E)::GG::huFcSEFL2 (Pb) (Fc fusion)
chain: B1 chain with A7G, E47N
B6: huNRG1(S177-Q237)(NRGE1F)::GG::huFcSEFL2 (Pb) (Fc fusion)
chain: B1 chain with F21Y, I23V, P26S, N28I, E47N
B7: huNRG1(S177-Q237)(NRGE1G)::GG::huFcSEFL2 (Pb) (Fc fusion)
chain: B1 chain with A7G, N9K, D10H, F21Y, I23V, P26S, N28I, E47N
B8: huNRG1(S177-Q237)(NRGE1H)::GG::huFcSEFL2 (Pb) (Fc fusion)
chain: B1 chain with A7G, N9S, D10H, E47N
B9: huNRG1(S177-Q237)(NRGE1I)::GG::huFcSEFL2 (Pb) (Fc fusion)
chain: B1 chain with A7G, E47D
B10: huNRG1(S177-Q237)(NRGE1J)::GG::huFcSEFL2 (Pb) (Fc fusion)
chain: B1 chain with A7G, F21Y, I23V, P26S, N28I, E47D
B11: huNRG1(S177-Q237)(NRGE1K)::GG::huFcSEFL2 (Pb) (Fc fusion)
chain: B1 chain with N9K, D10H, E47D
B12: huNRG1(S177-Q237)(NRGE1L)::GG::huFcSEFL2 (Pb) (Fc fusion)
chain: B1 chain with A7G, N9S, D10H, F21Y, I23V, P26S, N28I, E47D
B13: huNRG1(S177-Q237)(NRGE1M)::GG::huFcSEFL2 (Pb) (Fc fusion)
chain: B1 chain with A7G, E47D, D48F
B14: huNRG1(S177-Q237)(NRGE1N)::GG::huFcSEFL2 (Pb) (Fc fusion)
chain: B1 chain with A7G, F21Y, I23V, P26S, N28I, E47D, D48F
B15: huNRG1(S177-Q237)(NRGE1O)::GG::huFcSEFL2 (Pb) (Fc fusion)
chain: B1 chain with A7G, N9K, D10H, F21Y, I23V, P26S, N28I, E47D, D48F
B16: :huFcSEFL2(desK)vl31(+):G4SG4:huNRG1(S177-F229)(NRGE1C) (Fc fusion)
chain: DKTHTCPPCPAPELLGGPSVFLFPPKPKDTLMISRTPEVTCVVVDVSHEDPEVKFNWYVDGVEVHNAKTKPCEEQYGSTYRCVSVLTVLHQDWLNGKEYKCKVSNKALPAPIEKTISKAKGQPREPQVYTLPPSREKMTKNQVSLTCLVKGFYPSDIAVEWESNGQPENNYKTTPPVLKSDGSFFLYSKLTVDKSRWQQGNVFSCSVMHEALHNHYTQKSLSLSPGGGGGSGGGGSHLVKCGEKHKSFCVNGGECFMIEGPSNPSRYLCKCPNEFTGDRCQEDFMASFDKTHTCPPCPAPELLGGPSVFLFPPKPKDTLMISRTPEVTCVVVDVSHEDPEVKFNWYVDGVEVHNAKTKPCEEQYGSTYRCVSVLTVLHQDWLNGKEYKCKVSNKALPAPIEKTISKAKGQPREPQVYTLPPSREEMTENQVSLTCLVEGFYPSDIAVEWESNGQPENNYETTPPVLDSDGSFFLYSDLTVDKSRWQQGNVFSCSVMHEALHNHYTQKSLSLSPGK
B17: :huFcSEFL2(desK)vl31(+):G4SG4:huNRG1(S177-F229)(NRGE1D) (Fc fusion)
chain: B16 chain with K244S, F256Y, I258V, P261S, N263I
B18: :huFcSEFL2(desK)vl31(+):G4SG4:huNRG1(S177-Q237)(NRGE1C) (Fc fusion)
chain: DKTHTCPPCPAPELLGGPSVFLFPPKPKDTLMISRTPEVTCVVVDVSHEDPEVKFNWYVDGVEVHNAKTKPCEEQYGSTYRCVSVLTVLHQDWLNGKEYKCKVSNKALPAPIEKTISKAKGQPREPQVYTLPPSREKMTKNQVSLTCLVKGFYPSDIAVEWESNGQPENNYKTTPPVLKSDGSFFLYSKLTVDKSRWQQGNVFSCSVMHEALHNHYTQKSLSLSPGGGGGSGGGGSHLVKCGEKHKSFCVNGGECFMIEGPSNPSRYLCKCPNEFTGDRCQEDFMASFYKAEELYQDKTHTCPPCPAPELLGGPSVFLFPPKPKDTLMISRTPEVTCVVVDVSHEDPEVKFNWYVDGVEVHNAKTKPCEEQYGSTYRCVSVLTVLHQDWLNGKEYKCKVSNKALPAPIEKTISKAKGQPREPQVYTLPPSREEMTENQVSLTCLVEGFYPSDIAVEWESNGQPENNYETTPPVLDSDGSFFLYSDLTVDKSRWQQGNVFSCSVMHEALHNHYTQKSLSLSPGK
B19: :huFcSEFL2(desK)vl31(+):G4SG4:huNRG1(S177-Q237)(NRGE1D) (Fc fusion)
chain: B18 chain with K244S, F256Y, I258V, P261S, N263I
B20: :huNRG1(S177-F229)(NRGE1C)::2X(G4A)G4::huFcSEFL2v131(+) (Fc fusion)
chain: SHLVKCGEKHKSFCVNGGECFMIEGPSNPSRYLCKCPNEFTGDRCQEDFMASFGGGGAGGGGAGGGGDKTHTCPPCPAPELLGGPSVFLFPPKPKDTLMISRTPEVTCVVVDVSHEDPEVKFNWYVDGVEVHNAKTKPCEEQYGSTYRCVSVLTVLHQDWLNGKEYKCKVSNKALPAPIEKTISKAKGQPREPQVYTLPPSREKMTKNQVSLTCLVKGFYPSDIAVEWESNGQPENNYKTTPPVLKSDGSFFLYSKLTVDKSRWQQGNVFSCSVMHEALHNHYTQKSLSLSPGKDKTHTCPPCPAPELLGGPSVFLFPPKPKDTLMISRTPEVTCVVVDVSHEDPEVKFNWYVDGVEVHNAKTKPCEEQYGSTYRCVSVLTVLHQDWLNGKEYKCKVSNKALPAPIEKTISKAKGQPREPQVYTLPPSREEMTENQVSLTCLVEGFYPSDIAVEWESNGQPENNYETTPPVLDSDGSFFLYSDLTVDKSRWQQGNVFSCSVMHEALHNHYTQKSLSLSPGK
B21: :huNRG1(S177-F229)(NRGE1C)::2X(G4E)G4::huFcSEFL2v131(+) (Fc fusion)
chain: B20 chain with A58E, A63E
B22: :huNRG1(S177-F229)(NRGE1D)::2X(G4A)G4::huFcSEFL2v131(+) (Fc fusion)
chain: B20 chain with K9S, F21Y, I23V, P26S, N28I
B23: :huNRG1(S177-F229)(NRGE1D)::2X(G4E)G4::huFcSEFL2v131(+) (Fc fusion)
chain: B20 chain with K9S, F21Y, I23V, P26S, N28I, A58E, A63E
B24: huNRG1(S177-Q237)(1D4)::GG::huFcSEFL2 (Pb) (Fc fusion)
chain: SHLVKCGERDKTFCVNGGECYVVEHSSNPSRYLCKCPNEFTGDRCQKFFLASFYKAEELYQGGDKTHTCPPCPAPELLGGPSVFLFPPKPKDTLMISRTPEVTCVVVDVSHEDPEVKFNWYVDGVEVHNAKTKPCEEQYGSTYRCVSVLTVLHQDWLNGKEYKCKVSNKALPAPIEKTISKAKGQPREPQVYTLPPSREEMTKNQVSLTCLVKGFYPSDIAVEWESNGQPENNYKTTPPVLDSDGSFFLYSKLTVDKSRWQQGNVFSCSVMHEALHNHYTQKSLSLSPGK

How the values were obtained:
[1] = biological target: ErbB4 on neonatal rat cardiomyocytes (rat) (UniProt Q62956); test: cell-based or functional assay
[2] = biological target: ErbB3 on rat Schwann cells (rat) (UniProt Q62799); test: cell-based or functional assay
Chain of ErbB3 on rat Schwann cells (rat) (Q62799 20-1339): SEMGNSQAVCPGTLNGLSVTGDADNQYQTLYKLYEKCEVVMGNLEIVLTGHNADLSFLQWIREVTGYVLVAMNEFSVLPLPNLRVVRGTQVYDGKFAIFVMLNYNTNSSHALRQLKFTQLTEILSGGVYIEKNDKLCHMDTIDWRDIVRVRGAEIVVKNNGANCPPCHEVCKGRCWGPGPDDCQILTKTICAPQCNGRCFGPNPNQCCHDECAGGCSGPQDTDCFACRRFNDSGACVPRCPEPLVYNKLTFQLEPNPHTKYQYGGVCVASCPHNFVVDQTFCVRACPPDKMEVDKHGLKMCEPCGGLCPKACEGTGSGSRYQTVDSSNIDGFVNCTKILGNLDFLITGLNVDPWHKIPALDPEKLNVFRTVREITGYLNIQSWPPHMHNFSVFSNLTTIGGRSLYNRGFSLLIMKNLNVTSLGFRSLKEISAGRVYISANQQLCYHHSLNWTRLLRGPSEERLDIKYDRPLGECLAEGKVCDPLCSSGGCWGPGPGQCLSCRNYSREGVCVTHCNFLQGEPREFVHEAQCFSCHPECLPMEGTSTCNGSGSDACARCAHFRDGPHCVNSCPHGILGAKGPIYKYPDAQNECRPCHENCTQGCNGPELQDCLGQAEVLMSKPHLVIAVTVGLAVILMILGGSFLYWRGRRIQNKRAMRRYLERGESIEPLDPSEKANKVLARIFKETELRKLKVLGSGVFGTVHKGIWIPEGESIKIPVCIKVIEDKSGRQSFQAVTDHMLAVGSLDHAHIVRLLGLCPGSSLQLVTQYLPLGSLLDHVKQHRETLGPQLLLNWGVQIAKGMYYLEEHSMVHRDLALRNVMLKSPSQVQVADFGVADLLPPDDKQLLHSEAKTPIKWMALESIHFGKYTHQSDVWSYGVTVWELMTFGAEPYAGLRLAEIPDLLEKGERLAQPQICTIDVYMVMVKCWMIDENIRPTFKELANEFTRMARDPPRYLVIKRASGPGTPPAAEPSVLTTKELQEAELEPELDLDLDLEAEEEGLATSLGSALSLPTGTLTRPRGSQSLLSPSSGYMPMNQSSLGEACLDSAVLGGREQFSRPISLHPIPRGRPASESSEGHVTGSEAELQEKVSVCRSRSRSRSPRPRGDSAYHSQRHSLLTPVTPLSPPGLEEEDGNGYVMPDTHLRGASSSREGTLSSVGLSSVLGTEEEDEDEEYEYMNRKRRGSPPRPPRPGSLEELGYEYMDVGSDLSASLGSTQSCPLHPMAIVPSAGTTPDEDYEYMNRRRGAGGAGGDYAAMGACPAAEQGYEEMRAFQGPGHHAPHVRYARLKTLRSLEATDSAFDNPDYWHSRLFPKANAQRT

Chain of ErbB4 on neonatal rat cardiomyocytes (rat) (Q62956 26-1308): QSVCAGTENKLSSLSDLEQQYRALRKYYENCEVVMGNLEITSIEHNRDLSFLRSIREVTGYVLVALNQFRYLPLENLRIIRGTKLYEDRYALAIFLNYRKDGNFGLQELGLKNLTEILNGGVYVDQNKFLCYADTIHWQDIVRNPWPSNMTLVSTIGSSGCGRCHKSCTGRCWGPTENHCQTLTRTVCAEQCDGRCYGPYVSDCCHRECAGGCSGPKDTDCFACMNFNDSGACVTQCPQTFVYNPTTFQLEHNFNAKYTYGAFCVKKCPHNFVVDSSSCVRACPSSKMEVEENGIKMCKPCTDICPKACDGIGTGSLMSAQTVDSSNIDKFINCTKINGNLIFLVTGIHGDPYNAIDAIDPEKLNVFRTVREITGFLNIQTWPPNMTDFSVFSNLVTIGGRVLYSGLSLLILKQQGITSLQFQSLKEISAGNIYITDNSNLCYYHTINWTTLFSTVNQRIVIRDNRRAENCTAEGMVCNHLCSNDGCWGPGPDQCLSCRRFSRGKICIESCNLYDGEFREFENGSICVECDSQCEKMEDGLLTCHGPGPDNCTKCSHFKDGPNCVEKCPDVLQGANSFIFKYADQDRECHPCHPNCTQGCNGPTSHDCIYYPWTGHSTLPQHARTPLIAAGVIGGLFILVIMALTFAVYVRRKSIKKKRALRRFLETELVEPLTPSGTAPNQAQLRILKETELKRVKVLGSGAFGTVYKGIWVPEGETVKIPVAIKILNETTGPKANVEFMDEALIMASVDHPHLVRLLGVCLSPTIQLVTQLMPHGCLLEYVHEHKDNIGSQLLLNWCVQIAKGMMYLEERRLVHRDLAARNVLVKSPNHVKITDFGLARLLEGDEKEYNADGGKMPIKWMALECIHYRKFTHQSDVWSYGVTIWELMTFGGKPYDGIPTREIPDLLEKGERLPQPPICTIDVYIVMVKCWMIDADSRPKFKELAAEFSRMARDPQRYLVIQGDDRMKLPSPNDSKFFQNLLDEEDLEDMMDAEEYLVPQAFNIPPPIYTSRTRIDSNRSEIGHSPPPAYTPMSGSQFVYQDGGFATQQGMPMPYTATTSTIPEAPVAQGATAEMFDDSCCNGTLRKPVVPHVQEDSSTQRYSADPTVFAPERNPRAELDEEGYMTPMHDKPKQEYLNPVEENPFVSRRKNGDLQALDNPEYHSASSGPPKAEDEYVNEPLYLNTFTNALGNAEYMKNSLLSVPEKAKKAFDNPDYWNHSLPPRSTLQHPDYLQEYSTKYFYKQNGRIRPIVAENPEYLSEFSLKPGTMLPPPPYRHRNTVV

| Molecule | CM % Agonism AVG [1] | Cardiomyocyte (CM) (ErbB4) Avg EC50 [1] | Selectivity SC/CM [1] | Schwann cells (SC) (ErbB3) Avg EC50 [2] |
| --- | --- | --- | --- | --- |
| huNRG1(S177-S228)(wt)((G4E)2:G4)::huFcSEFL2 (Pb) (Fc fusion) | 92.6% | 0.084 nM | 0.264 | 0.0222 nM |
| huNRG1(S177-Q237)(wt)::3x(G4Q)::huFcSEFL2 (Pb) (from UniProt P0DOX5 223-449) (Fc fusion) |  | 0.21 nM | 0.3 | 0.07 nM |
| huNRG1(S177-S228)(wt)::3x(G4Q)::huFcSEFL2 (Pb) (from UniProt P0DOX5 300-449) (Fc fusion) |  | 2.6 nM | 0.03 | 0.07 nM |
| huNRG1(S177-F229) huIgG1z SELF2 Fc (Fc fusion) | 91.4% | 0.31 nM | 0.452 | 0.14 nM |
| huNRG1(S177-F229)(wt)::3x(G4Q)::huFcSEFL2 (Pb) (Fc fusion) |  | 0.34 nM | 0.3 | 0.1 nM |
| B1 | 72% | 1.84 nM | > 5500 | > 10000 nM |
| B2 | 76% | 1.48 nM | > 6700 | > 10000 nM |
| B3 | 82% | 0.476 nM and 0.41 nM | > 10000 | > 10000 nM |
| B4 | 83% | 0.303 nM and 0.33 nM | > 10000 | > 10000 nM |
| B5 | 83% | 0.995 nM | > 10000 | > 10000 nM |
| B6 | 90% | 0.65 nM | > 10000 | > 10000 nM |
| B7 | 84% | 0.218 nM | > 10000 | > 10000 nM |
| B8 | 88% | 0.286 nM | > 10000 | > 10000 nM |
| B9 | 67% | 22.9 nM | 437 | > 10000 nM |
| B10 | 68% | 14.1 nM | 710 | > 10000 nM |
| B11 | 66% | 7.54 nM | 1320 | > 10000 nM |
| B12 | 74% | 2.29 nM | > 4370 | > 10000 nM |
| B13 | 30% | 25.6 nM | 39 | 1010 nM |
| B14 | 26% | 1.73 nM | 435 | 751 nM |
| B15 | 27% | 1.04 nM | 526 | 546 nM |
| B16 | 62.7% | 6.4 nM | > 10000 |  |
| B17 | 72.3% | 4.3 nM | > 10000 |  |
| B18 | 85.4% | 0.3 nM | > 10000 |  |
| B19 | 88.7% | 0.23 nM | > 10000 |  |
| B20 | 91.6% | 3.4 nM | > 10000 |  |
| B21 | 94% | 2.9 nM | > 10000 |  |
| B22 | 87.1% | 2 nM | > 10000 |  |
| B23 | 91.9% | 1.9 nM | > 10000 |  |
| B24 |  | 0.924 nM and 0.576 nM |  |  |
